The record followed here is paper PMC2757237.

A value given as a limit tells only on which side of the number the result lay.

Assay in all cases: co-IP
Test [1] concerns the target PfGAPM3-HA (P. falciparum).
In test [2] the target is PfGAPM1-HA (P. falciparum) (UniProt Q8IE80).
Test [3] addresses PfGAPM2-GFP (P. falciparum) (UniProt Q8IFN1).

Consider PfALV4 (natural protein), for which the results for the percent of the total ALV in the sample that was precipitated in test [1], in test [2] and in test [3] were 16%, 17% and 26%, respectively.
“PfGAP45 (from UniProt Q8I5I8 1-204) (natural protein)” gave a percent of the protein in the sample that was precipitated in test [1] of under 10%.
For PfGAP50 (natural protein), the percent of the protein in the sample that was precipitated in test [1], in test [2] and in test [3] was under 10% each time.
